Experimental data taken from the supplement of paper PMC10567573.

B1: KCNA4 (parent)
chain: YQLGEEALLKFREDEGFVREEEDR

Variants of: B1
Assay: protein stability index of a GFP-peptide fusion (GPS, HEK-293T) (PSI 1-6); higher = more stable
Conditions: c terminus: a fixed tail appended
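Also: lentivirally expressed fusions sorted by FACS into six bins by GFP to DsRed ratio, PSI derived from sequencing read proportions per bin multiplied by bin number.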

For YQIGEEALLKFREDEGFVREEEDR [L3I], which protein stability index is on record?
Its protein stability index is 5.12.

Which protein stability index does the source give for YQKGEEALLKFREDEGFVREEEDR [L3K] here?
The protein stability index was 5.02.

With YQMGEEALLKFREDEGFVREEEDR [L3M] as the variant, how does the protein stability index read?
The protein stability index was 3.76.

With YQNGEEALLKFREDEGFVREEEDR [L3N] as the variant, how does the protein stability index read?
The protein stability index was 5.68.

With YQPGEEALLKFREDEGFVREEEDR [L3P] as the variant, how does the protein stability index read?
The protein stability index was 5.28.

With YQQGEEALLKFREDEGFVREEEDR [L3Q] as the variant, how does the protein stability index read?
Its protein stability index is 5.62.

For YQRGEEALLKFREDEGFVREEEDR [L3R], which protein stability index is on record?
The protein stability index was 4.75.

With YQSGEEALLKFREDEGFVREEEDR [L3S] as the variant, how does the protein stability index read?
The protein stability index was 4.86.

With YQTGEEALLKFREDEGFVREEEDR [L3T] as the variant, how does the protein stability index read?
The protein stability index was 5.31.

For YQVGEEALLKFREDEGFVREEEDR [L3V], which protein stability index is on record?
The protein stability index was 5.28.

With YQWGEEALLKFREDEGFVREEEDR [L3W] as the variant, how does the protein stability index read?
The protein stability index was 3.89.

With YQYGEEALLKFREDEGFVREEEDR [L3Y] as the variant, how does the protein stability index read?
Its protein stability index is 5.23.

Which protein stability index does the source give for YQLAEEALLKFREDEGFVREEEDR [G4A] here?
Its protein stability index is 5.24.

Which protein stability index does the source give for YQLCEEALLKFREDEGFVREEEDR [G4C] here?
The protein stability index was 4.51.

With YQLDEEALLKFREDEGFVREEEDR [G4D] as the variant, how does the protein stability index read?
The protein stability index was 4.43.

With YQLEEEALLKFREDEGFVREEEDR [G4E] as the variant, how does the protein stability index read?
Its protein stability index is 5.77.

With YQLFEEALLKFREDEGFVREEEDR [G4F] as the variant, how does the protein stability index read?
The protein stability index was 4.28.

Which protein stability index does the source give for YQLHEEALLKFREDEGFVREEEDR [G4H] here?
The protein stability index was 4.8.

For YQLIEEALLKFREDEGFVREEEDR [G4I], which protein stability index is on record?
Its protein stability index is 4.83.

Which protein stability index does the source give for YQLKEEALLKFREDEGFVREEEDR [G4K] here?
Its protein stability index is 5.34.

For YQLLEEALLKFREDEGFVREEEDR [G4L], which protein stability index is on record?
Its protein stability index is 4.41.

With YQLMEEALLKFREDEGFVREEEDR [G4M] as the variant, how does the protein stability index read?
The protein stability index was 5.27.

For YQLNEEALLKFREDEGFVREEEDR [G4N], which protein stability index is on record?
The protein stability index was 4.28.

Which protein stability index does the source give for YQLPEEALLKFREDEGFVREEEDR [G4P] here?
The protein stability index was 5.03.

For YQLQEEALLKFREDEGFVREEEDR [G4Q], which protein stability index is on record?
Its protein stability index is 5.08.

With YQLREEALLKFREDEGFVREEEDR [G4R] as the variant, how does the protein stability index read?
The protein stability index was 4.56.

With YQLSEEALLKFREDEGFVREEEDR [G4S] as the variant, how does the protein stability index read?
The protein stability index was 3.81.

Which protein stability index does the source give for YQLTEEALLKFREDEGFVREEEDR [G4T] here?
The protein stability index was 4.12.

For YQLVEEALLKFREDEGFVREEEDR [G4V], which protein stability index is on record?
The protein stability index was 5.11.

For YQLWEEALLKFREDEGFVREEEDR [G4W], which protein stability index is on record?
Its protein stability index is 4.4.

For YQLYEEALLKFREDEGFVREEEDR [G4Y], which protein stability index is on record?
The protein stability index was 4.57.

For YQLGAEALLKFREDEGFVREEEDR [E5A], which protein stability index is on record?
Its protein stability index is 3.65.

Which protein stability index does the source give for YQLGCEALLKFREDEGFVREEEDR [E5C] here?
Its protein stability index is 4.32.

Which protein stability index does the source give for YQLGDEALLKFREDEGFVREEEDR [E5D] here?
The protein stability index was 4.97.

For YQLGFEALLKFREDEGFVREEEDR [E5F], which protein stability index is on record?
The protein stability index was 2.93.

With YQLGGEALLKFREDEGFVREEEDR [E5G] as the variant, how does the protein stability index read?
The protein stability index was 3.87.

Which protein stability index does the source give for YQLGHEALLKFREDEGFVREEEDR [E5H] here?
Its protein stability index is 3.76.

For YQLGIEALLKFREDEGFVREEEDR [E5I], which protein stability index is on record?
Its protein stability index is 3.55.

With YQLGKEALLKFREDEGFVREEEDR [E5K] as the variant, how does the protein stability index read?
Its protein stability index is 3.3.

Which protein stability index does the source give for YQLGLEALLKFREDEGFVREEEDR [E5L] here?
The protein stability index was 3.83.

Which protein stability index does the source give for YQLGMEALLKFREDEGFVREEEDR [E5M] here?
The protein stability index was 3.37.

Which protein stability index does the source give for YQLGNEALLKFREDEGFVREEEDR [E5N] here?
The protein stability index was 4.22.

For YQLGPEALLKFREDEGFVREEEDR [E5P], which protein stability index is on record?
The protein stability index was 4.11.

With YQLGQEALLKFREDEGFVREEEDR [E5Q] as the variant, how does the protein stability index read?
The protein stability index was 3.92.

Which protein stability index does the source give for YQLGREALLKFREDEGFVREEEDR [E5R] here?
Its protein stability index is 3.48.

For YQLGSEALLKFREDEGFVREEEDR [E5S], which protein stability index is on record?
Its protein stability index is 4.38.

For YQLGTEALLKFREDEGFVREEEDR [E5T], which protein stability index is on record?
The protein stability index was 4.2.

With YQLGVEALLKFREDEGFVREEEDR [E5V] as the variant, how does the protein stability index read?
The protein stability index was 3.86.

With YQLGWEALLKFREDEGFVREEEDR [E5W] as the variant, how does the protein stability index read?
The protein stability index was 1.63.

With YQLGYEALLKFREDEGFVREEEDR [E5Y] as the variant, how does the protein stability index read?
The protein stability index was 3.21.

With YQLGEAALLKFREDEGFVREEEDR [E6A] as the variant, how does the protein stability index read?
The protein stability index was 4.31.

For YQLGECALLKFREDEGFVREEEDR [E6C], which protein stability index is on record?
The protein stability index was 3.51.

For YQLGEDALLKFREDEGFVREEEDR [E6D], which protein stability index is on record?
The protein stability index was 4.67.

Which protein stability index does the source give for YQLGEFALLKFREDEGFVREEEDR [E6F] here?
The protein stability index was 2.4.

For YQLGEGALLKFREDEGFVREEEDR [E6G], which protein stability index is on record?
Its protein stability index is 4.32.

Which protein stability index does the source give for YQLGEHALLKFREDEGFVREEEDR [E6H] here?
Its protein stability index is 4.33.

For YQLGEIALLKFREDEGFVREEEDR [E6I], which protein stability index is on record?
The protein stability index was 2.93.

For YQLGEKALLKFREDEGFVREEEDR [E6K], which protein stability index is on record?
The protein stability index was 4.

With YQLGELALLKFREDEGFVREEEDR [E6L] as the variant, how does the protein stability index read?
Its protein stability index is 3.32.

Which protein stability index does the source give for YQLGEMALLKFREDEGFVREEEDR [E6M] here?
Its protein stability index is 3.99.

With YQLGENALLKFREDEGFVREEEDR [E6N] as the variant, how does the protein stability index read?
The protein stability index was 4.43.

Which protein stability index does the source give for YQLGEPALLKFREDEGFVREEEDR [E6P] here?
The protein stability index was 4.92.

With YQLGEQALLKFREDEGFVREEEDR [E6Q] as the variant, how does the protein stability index read?
The protein stability index was 4.23.

For YQLGERALLKFREDEGFVREEEDR [E6R], which protein stability index is on record?
The protein stability index was 3.46.

With YQLGESALLKFREDEGFVREEEDR [E6S] as the variant, how does the protein stability index read?
The protein stability index was 4.67.

With YQLGETALLKFREDEGFVREEEDR [E6T] as the variant, how does the protein stability index read?
The protein stability index was 4.32.

For YQLGEVALLKFREDEGFVREEEDR [E6V], which protein stability index is on record?
Its protein stability index is 2.93.

For YQLGEWALLKFREDEGFVREEEDR [E6W], which protein stability index is on record?
Its protein stability index is 1.97.

For YQLGEYALLKFREDEGFVREEEDR [E6Y], which protein stability index is on record?
Its protein stability index is 3.04.

With YQLGEECLLKFREDEGFVREEEDR [A7C] as the variant, how does the protein stability index read?
The protein stability index was 4.89.

With YQLGEEDLLKFREDEGFVREEEDR [A7D] as the variant, how does the protein stability index read?
The protein stability index was 4.23.

With YQLGEEELLKFREDEGFVREEEDR [A7E] as the variant, how does the protein stability index read?
Its protein stability index is 4.38.

Which protein stability index does the source give for YQLGEEFLLKFREDEGFVREEEDR [A7F] here?
Its protein stability index is 4.43.

Which protein stability index does the source give for YQLGEEGLLKFREDEGFVREEEDR [A7G] here?
The protein stability index was 4.64.

With YQLGEEHLLKFREDEGFVREEEDR [A7H] as the variant, how does the protein stability index read?
Its protein stability index is 4.56.

With YQLGEEILLKFREDEGFVREEEDR [A7I] as the variant, how does the protein stability index read?
Its protein stability index is 3.99.

For YQLGEEKLLKFREDEGFVREEEDR [A7K], which protein stability index is on record?
The protein stability index was 5.36.

Which protein stability index does the source give for YQLGEELLLKFREDEGFVREEEDR [A7L] here?
Its protein stability index is 4.8.

For YQLGEEMLLKFREDEGFVREEEDR [A7M], which protein stability index is on record?
The protein stability index was 4.14.

With YQLGEENLLKFREDEGFVREEEDR [A7N] as the variant, how does the protein stability index read?
Its protein stability index is 4.82.

With YQLGEEPLLKFREDEGFVREEEDR [A7P] as the variant, how does the protein stability index read?
Its protein stability index is 4.59.

With YQLGEEQLLKFREDEGFVREEEDR [A7Q] as the variant, how does the protein stability index read?
The protein stability index was 4.1.

Which protein stability index does the source give for YQLGEERLLKFREDEGFVREEEDR [A7R] here?
Its protein stability index is 4.62.

With YQLGEESLLKFREDEGFVREEEDR [A7S] as the variant, how does the protein stability index read?
The protein stability index was 4.52.

For YQLGEETLLKFREDEGFVREEEDR [A7T], which protein stability index is on record?
The protein stability index was 4.95.

Which protein stability index does the source give for YQLGEEVLLKFREDEGFVREEEDR [A7V] here?
Its protein stability index is 4.33.

With YQLGEEWLLKFREDEGFVREEEDR [A7W] as the variant, how does the protein stability index read?
Its protein stability index is 1.48.

For YQLGEEYLLKFREDEGFVREEEDR [A7Y], which protein stability index is on record?
The protein stability index was 4.27.

With YQLGEEAALKFREDEGFVREEEDR [L8A] as the variant, how does the protein stability index read?
Its protein stability index is 4.93.

Which protein stability index does the source give for YQLGEEACLKFREDEGFVREEEDR [L8C] here?
Its protein stability index is 4.98.

Which protein stability index does the source give for YQLGEEADLKFREDEGFVREEEDR [L8D] here?
The protein stability index was 5.6.

With YQLGEEAELKFREDEGFVREEEDR [L8E] as the variant, how does the protein stability index read?
Its protein stability index is 5.5.

Which protein stability index does the source give for YQLGEEAFLKFREDEGFVREEEDR [L8F] here?
The protein stability index was 4.43.

Which protein stability index does the source give for YQLGEEAGLKFREDEGFVREEEDR [L8G] here?
Its protein stability index is 5.48.
